Laboratory results as given in article PMC12810643.

Target: endogenously expressed Gαi (human (endogenous in HEK293)) (UniProt P63096)
Assay: linear dichroism

UniProt P63096, sequence (P63096 whole entry): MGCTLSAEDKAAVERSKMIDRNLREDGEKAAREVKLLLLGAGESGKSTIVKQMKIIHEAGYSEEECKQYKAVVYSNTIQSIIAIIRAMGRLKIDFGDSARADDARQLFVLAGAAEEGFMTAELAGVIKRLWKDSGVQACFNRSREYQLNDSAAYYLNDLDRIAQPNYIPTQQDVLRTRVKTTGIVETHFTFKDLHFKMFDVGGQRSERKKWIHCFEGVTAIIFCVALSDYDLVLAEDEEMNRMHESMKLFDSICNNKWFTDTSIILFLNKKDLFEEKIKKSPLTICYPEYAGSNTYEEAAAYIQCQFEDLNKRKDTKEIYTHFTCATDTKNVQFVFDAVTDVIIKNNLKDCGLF

Row | percent of the FLIP molecules bound [%] | Substance
1 | 15 | KB1753-cpmTurq2-HRas
2 | 15 | KB1753-eGFP-HRas
